{"source": "paper PMC9440762", "proteins": {"B1": {"name": "C-phycocyanin αβ monomer (heterodimer of the α and β subunits) from Arthrospira platensis (protein)", "chain 1": "not shown", "chain 2": "MFDAFTKVVSQADTRGEMLSTAQIDALSQMVAESNKRLDAVNRITSNASTIVSNAARSLFAEQPQLIAPGGNAYTSRRMAACLRDMEIILRYVTYAVFAGDASVLEDRCLNGLRETYLALGTPGSSVAVGVGKMKEAALAIVNDPAGITPGDCSALASEIASYFDRACAAVS"}}, "molecular_target": "P72509", "experiment": "SEC; C-PC dialysed overnight against 8 M urea and 30 mM β-mercaptoethanol, then loaded on Superdex 200 Increase 5/150 in urea-free 75 mM phosphate buffer pH 7.9; partial reassociation during the run"}
{"protein": "B1", "values": [{"measurement": "yield of the state with the initial hydrodynamic characteristics after renaturation from 8 M urea", "result": 9.6, "unit": "%"}]}
